Tests used:
[1] = system: MS2 coat protein; assay: apparent KD of MS2 coat protein, switch OFF state (with FMN for OFF switches, without FMN for ON switches); designed switch direction (-1 OFF switch, 1 ON switch): 1; higher = weaker reporter binding; settings: FMN input: 0 or 200 uM; Eterna round: R93 (includes R88 designs)
Procedure, shortened: (§1)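 Apparent KD is reported per design as the median of normalised binding-curve fits across its clusters. The RNA switches were made by on-chip transcription from Illumina sequencing clusters. SNAP-549-labelled MS2 coat protein was then added in twofold steps (0.7 or 1.5 nM to 3 µM; 0.8–1.5 h to 10–20 min per step) in 100 mM Tris-HCl pH 7.5, 80 mM KCl, 4 mM MgCl2, without or with constant ligand.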

[2] = system: MS2 coat protein; assay: apparent KD of MS2 coat protein, switch ON state; designed switch direction (-1 OFF switch, 1 ON switch): 1; higher = weaker reporter binding; settings: FMN input: 0 or 200 uM; Eterna round: R93 (includes R88 designs)
Procedure, shortened: as §1

Sequence: AGGAAACAUGAGGAUCACCCAUGUAAAAAUAUGGAAGGAUAUGGAAACACGAAAGUGAAACCAGAAGGUCCGAAAA [77%, Mat - Mod of Eli, 19]
- apparent KD of MS2 coat protein [1]: 23.1 nM
- apparent KD of MS2 coat protein [2]: 13.1 nM

Sequence: AGGAAACAUGAGGAUCACCCAUGUAAAAAUAUGGGAGGAUAUGCGAAAAGAAACAAAGAAGCAGAAGGCCUAAGAA [75%, Ex5 sub 1, 7]
- apparent KD of MS2 coat protein [1]: 155 nM
- apparent KD of MS2 coat protein [2]: 11.9 nM

Sequence: AGGAAACAUGAGGAUCACCCAUGUAGAAAUAUGGGAGGAUAUCGGAAUAAAAUAAAGAAACGAGAAGGCCUAAAAG [59%, Flamingo, 3]
- apparent KD of MS2 coat protein [1]: 324 nM
- apparent KD of MS2 coat protein [2]: 38.8 nM

Sequence: AGGAGACAUGAGGAUCACCCAUGUGAGAAGAGGCGAGGAUAUCGAAAAAAAAAAAAAAAACGAGAAGGCGCGAGAA [SameState1]
- apparent KD of MS2 coat protein [1]: 58.2 nM
- apparent KD of MS2 coat protein [2]: 35.4 nM

Sequence: AGGAGACAUGAGGAUCACCCAUGUGAGAAGAGGCGAGGAUAUCGAAAAAAAAAAAAAAAACGAGAAGGCGCGAGAA [salish99-SS1-002]
- apparent KD of MS2 coat protein [1]: 58.2 nM
- apparent KD of MS2 coat protein [2]: 35.4 nM

Sequence: AGGAGACAUGAGGAUCACCCAUGUGAGAAGAGGCGAGGAUAUCGAAAGAAAGAAGAGAAACGAGAAGGCGCGAGUU [salish99-SS1-022]
- apparent KD of MS2 coat protein [1]: 33.8 nM
- apparent KD of MS2 coat protein [2]: 25.5 nM

Sequence: AGGCAACAUGAGGAUCACCCAUGUCGCAACAAUCAAGGAUAUGGGAGAAAUAAGAAAAUACCAGAAGGUGAAAUAA [Telelabe]
- apparent KD of MS2 coat protein [1]: 92 nM
- apparent KD of MS2 coat protein [2]: 60.7 nM

Sequence: AUAAAAACGUAUGAGGAUAUCCAAAAUAAAACAUGAGGAUCACCCAUGUGAAUAAAAUAACAAUGGGAGAAGGCAUACGUAUCAU [SS 2 M 53]
- apparent KD of MS2 coat protein [1]: 28.8 nM
- apparent KD of MS2 coat protein [2]: 12.5 nM

Sequence: AUAAAACAUGAGGAUCACCCAUGUAGAAAUAUGGGAGGAUAUACAAAGACGAAAGUCGAAGUAGAAGGCCUAAAAG [Mat - Same State 1 - Meechl mod - D117]
- apparent KD of MS2 coat protein [1]: 68.3 nM
- apparent KD of MS2 coat protein [2]: 27.4 nM

Sequence: AUAAAACAUGAGGAUCACCCAUGUAGAAAUAUGGGAGGAUAUACUAGAUCGAAAGAUCUAGUAGAAGGCCUUAAAG [JL Mod of Eli 3]
- apparent KD of MS2 coat protein [1]: 52.6 nM
- apparent KD of MS2 coat protein [2]: 31.7 nM

Sequence: AUAAAAUAAAAUGAGGAUAUCUAUAAUAAAACAUGAGGAUCACCCAUGUUUAAACAAAGAUCAUGGGAGAAGGCAUAAAAUAAAU [SS2 M 40]
- apparent KD of MS2 coat protein [1]: 14 nM
- apparent KD of MS2 coat protein [2]: 15.9 nM

Sequence: AUAAAAUACUGUGAGGAUAUCCAUAAUAAAACAUGAGGAUCACCCAUGUGUAGAUAAUAAUAAUGGGAGAAGGCACAUAAUAAUA [Mat - Same state - Mayanna Mod - D101]
- apparent KD of MS2 coat protein [1]: 41 nM
- apparent KD of MS2 coat protein [2]: 15.7 nM

Sequence: AUAAAUAAAAGAGAGGAUAUCCAAAAGAAAACAUGAGGAUCACCCAUGUGAAAGAAAAUAAAAUGGGAGAAGGCUCACAAUAAUA [Topaz 32]
- apparent KD of MS2 coat protein [1]: 26 nM
- apparent KD of MS2 coat protein [2]: 23 nM

Sequence: AUAAAUAAAAUAGAGGAUAUCCAAAACAAAACAUGAGGAUCACCCAUGUAAAAGAAAAUAAAAUGGGAGAAGGCUACAAAUAAAU [SS2 M 3]
- apparent KD of MS2 coat protein [1]: 30.5 nM
- apparent KD of MS2 coat protein [2]: 20.1 nM

Sequence: AUAAAUAAAAUCGAGGAUAUCCAAUAAUAAACAUGAGGAUCACCCAUGUAAAAGAAAAUAUAAUGGGAGAAGGCGAAUAAUAAAU [JR_SS002_Sub1701]
- apparent KD of MS2 coat protein [1]: 20 nM
- apparent KD of MS2 coat protein [2]: 16.3 nM

Sequence: AUAACACAUGAGGAUCACCCAUGUAGAAAUAAGGGAGGAUAUACAAAGACGAAAGUCAAAGUAGAAGGCUCAAAAG [76%, Meechl 4]
- apparent KD of MS2 coat protein [1]: 18.6 nM
- apparent KD of MS2 coat protein [2]: 14.8 nM

Sequence: AUAGGGACGUCGGAGGAUAUUCGAUGUAAAACAUGAGGAUCACCCAUGUGAAUAAAAUAAACAUGGAAGAAGGCCGACGUGCCAU [SS 2 M 54]
- apparent KD of MS2 coat protein [1]: 13.3 nM
- apparent KD of MS2 coat protein [2]: 10.3 nM

Sequence: AUAUAAAUAAGGUAGGAUAUACUAAAGUAAACAUGAGGAUCACCCAUGUAAAGAAAGAAACUCAUGUAGAAGGACCAUAUAUAUA [viburnum 1]
- apparent KD of MS2 coat protein [1]: 264 nM
- apparent KD of MS2 coat protein [2]: 24.4 nM

Sequence: AUAUAUAUAAGACAGGAUAUCCGAAAGUAAACAUGAGGAUCACCCAUGUAAAGAAAGAAACUCAUGGAGAAGGGUCAAUAUAUAU [Mat - Same State 2 - Tesla mod - D84]
- apparent KD of MS2 coat protein [1]: 65.6 nM
- apparent KD of MS2 coat protein [2]: 22.4 nM

Sequence: AUAUAUAUAAGGUAGGAUAUCCAAAAGUAAACAUGAGGAUCACCCAUGUAAAAAAUCUAAAAAUGGGAGAAGGACCAUAUAUAUA
- apparent KD of MS2 coat protein [1]: 37.1 nM
- apparent KD of MS2 coat protein [2]: 19 nM

Sequence: AUAUAUAUAAGGUAGGAUAUCCAAAAGUCCACAUGAGGAUCACCCAUGUAAAGAAAGAAAAAAUGGGAGAAGGACCAUAUAUAUA [77%, More Tesla, 5]
- apparent KD of MS2 coat protein [1]: 42.1 nM
- apparent KD of MS2 coat protein [2]: 18.7 nM

Sequence: AUCUAACAUGAGGAUCACCCAUGUAUUCAAAAACAAGGAUAUAUAACAAACAAACAACAAAUAGAAGGUGUAAAUA [Default title]
- apparent KD of MS2 coat protein [1]: 19.6 nM
- apparent KD of MS2 coat protein [2]: 19 nM

Sequence: AUUUUACAUGAGGAUCACCCAUGUUUUGGUGGAUCAGGAUAUAAAUUGAAUGAGUUUUAGUUAGAAGGGAUAUAUA [JR_SS001_Sub505]
- apparent KD of MS2 coat protein [1]: 54 nM
- apparent KD of MS2 coat protein [2]: 78.4 nM

Sequence: CAACAGAGAGGACAGGAUAUGUCGUGAUAAACAUGAGGAUCACCCAUGUGAGACAUCACGUAGUCGCAGAAGGGUCCCGUCUUAC [Esleerandi]
- apparent KD of MS2 coat protein [1]: 18.8 nM
- apparent KD of MS2 coat protein [2]: 15.3 nM

Sequence: CAUCAUGCGCCUAAGGAUAUGUCUCACAAGACAUGAGGAUCACCCAUGUAGAAUAAAUAAAUGAUGCAGAAGGUGGAGUGCAUGC [Rierre]
- apparent KD of MS2 coat protein [1]: 334 nM
- apparent KD of MS2 coat protein [2]: 72.1 nM

Sequence: CAUCAUGCGCCUAAGGAUAUGUCUCACAAGACAUGAGGAUCACCCAUGUAGACAAAAUAAGCGAUGCAGAAGGUGGAGCGCAUGC [Rasoer]
- apparent KD of MS2 coat protein [1]: 348 nM
- apparent KD of MS2 coat protein [2]: 83.1 nM

Sequence: CAUCAUGCGCCUAAGGAUAUGUCUCACAAGACAUGAGGAUCACCCAUGUAUAAUAAAUAAAUGAUGCAGAAGGUGGAGUGCAUGC [Latibe]
- apparent KD of MS2 coat protein [1]: 245 nM
- apparent KD of MS2 coat protein [2]: 87.7 nM

Sequence: CCCAAUGCAACGAAGGAUAUCCGUCAUGCCACAUGAGGAUCACCCAUGUACUGGCGGCACAAGACGGAGAAGGUCGGGUGCUGUG [Quenrean]
- apparent KD of MS2 coat protein [1]: 11 nM
- apparent KD of MS2 coat protein [2]: 9.4 nM

Sequence: CCGAUGGUAUACUAGGAUAUGGGCGCCCUUACAUGAGGAUCACCCAUGUUAUCACAAAGCCGCGGCCAGAAGGAGUUCAUGGGAG [Tieronsove]
- apparent KD of MS2 coat protein [1]: 122 nM
- apparent KD of MS2 coat protein [2]: 94.7 nM

Sequence: CCUAGACAUGAGGAUCACCCAUGUCGAACAAACAAAGGAUAUGGGAGCCGAAGAAGGCUAUUAGAAGGUUGCAAAU [Aisedbi]
- apparent KD of MS2 coat protein [1]: 34 nM
- apparent KD of MS2 coat protein [2]: 29.4 nM

Sequence: CGAAAGGAGAGAGAGGAUAUCCAAAGGAAAACAUGAGGAUCACCCAUGUAGAAGGUAGGAGAUUGGGAGAAGGCUCAAGAGAGCU [salish99-ss2-152]
- apparent KD of MS2 coat protein [1]: 32.6 nM
- apparent KD of MS2 coat protein [2]: 30.5 nM

Sequence: CGAAAGGAGAGAGAGGAUAUCCAAAGGAAAACAUGAGGAUCACCCAUGUAGAAGGUAGGAGAUUGGGAGAAGGCUCAAGAGAUAU [salish99-ss2-153]
- apparent KD of MS2 coat protein [1]: 44.2 nM
- apparent KD of MS2 coat protein [2]: 20 nM

Sequence: CGCAAACAUGAGGAUCACCCAUGUCAAUGUGGUCAAGGAUAUGGGUUCCUAAAUGGAACACCAGAAGGUGAAAAGA [Anesatve]
- apparent KD of MS2 coat protein [1]: 54.5 nM
- apparent KD of MS2 coat protein [2]: 20 nM

Sequence: CGGGCCCGGGCGCAGGAUAUCUGAAAAAAAACAUGAGGAUCACCCAUGUGUGGGAAAAAAAAAAAAGAGAAGGGCGCCCGGGCCC [Natural State 2 -38.15 -4 kcal]
- apparent KD of MS2 coat protein [1]: 48.6 nM
- apparent KD of MS2 coat protein [2]: 29.4 nM

Sequence: GAAAAACAUGAGGAUCACCCAUGUAAAAAUAUGGGAGGAUAUUGAAACACGAAAGUCAAACAAGAAGGCCUAAAAG [Garnet 3]
- apparent KD of MS2 coat protein [1]: 147 nM
- apparent KD of MS2 coat protein [2]: 44.1 nM

Sequence: GAAAAACAUGAGGAUCACCCAUGUAGAAACAUGGGAGGAUAUACAAAGACGAAAGUCAAAGUAGAAGGCCUAAAAA [Mat - Same State 1 - Mod - D160]
- apparent KD of MS2 coat protein [1]: 851 nM
- apparent KD of MS2 coat protein [2]: 149 nM

Sequence: GAAAAACAUGAGGAUCACCCAUGUAGAAAUAUGGGAGGAUAUACAAAGACGAAAGUCAAAGUAGAAGGCCCAAAAG [Starry Same State 1.1 (mat747 round 1 mod)]
- apparent KD of MS2 coat protein [1]: 38.8 nM
- apparent KD of MS2 coat protein [2]: 24.1 nM

Sequence: GAAAAACAUGAGGAUCACCCAUGUAGAAAUAUGGGAGGAUAUACAAAGUGGAAAGACAAAGUAGAAGGCCUAAAAG [Garnet 25]
- apparent KD of MS2 coat protein [1]: 309 nM
- apparent KD of MS2 coat protein [2]: 35.6 nM

Sequence: GAAAAACAUGAGGAUCACCCAUGUAGAGAUAUGGGAGGAUAUACGAAGACGAAAGACGAGGUAGAAGGCCUAAAAG [Garnet 57]
- apparent KD of MS2 coat protein [1]: 218 nM
- apparent KD of MS2 coat protein [2]: 66.1 nM
